Data as given in paper PMC8396344, “Palmitoylation of Prolactin-Releasing Peptide Increased Affinity for and Activation of the GPR10, NPFF-R2 and NPFF-R1 Receptors: In Vitro Study” (International Journal of Molecular Sciences, 2021).
Like-named read-outs stand apart in the source and are kept apart here. Starred links: 1 amine or outer side, 2 acyl side, 3 side chain; linkers in the order of their positions; H or OH if unused. Non-standard residues stand in square brackets, D forms with d. Groups on a side chain read outwards from the residue. No end group written: not given here. *: point of attachment. γGlu = O=C(O)[C@H](CCC(=O)[*:2])N[*:1]; Palmitoyl = CCCCCCCCCCCCCCCC(=O)*; NMeF = CN[C@@H](Cc1ccccc1)C(=O)O; 125I = [125I]*

Tests used:
[1] = biological target: T1, neuropeptide Y receptor Y2 (UniProt P49146 1-381); experiment: radioligand binding; competition with 0.1 nM [^125I]-PYY on U2OS cells with Y1, Y2 or Y5; 25 mM HEPES, 120 mM NaCl, 5 mM MgCl2, 4.7 mM KCl, 1 mM CaCl2, 0.5% BSA, 2 g/L glucose; peptides 10^-12 to 10^-5 M; 60 min at RT; Ki by the Cheng-Prusoff equation
T1 construct: receptor of NPY, Y2; source: U2OS cells stably expressing the receptor, bought: Thermo Fisher Scientific; on cells
T1 sequence (looked up): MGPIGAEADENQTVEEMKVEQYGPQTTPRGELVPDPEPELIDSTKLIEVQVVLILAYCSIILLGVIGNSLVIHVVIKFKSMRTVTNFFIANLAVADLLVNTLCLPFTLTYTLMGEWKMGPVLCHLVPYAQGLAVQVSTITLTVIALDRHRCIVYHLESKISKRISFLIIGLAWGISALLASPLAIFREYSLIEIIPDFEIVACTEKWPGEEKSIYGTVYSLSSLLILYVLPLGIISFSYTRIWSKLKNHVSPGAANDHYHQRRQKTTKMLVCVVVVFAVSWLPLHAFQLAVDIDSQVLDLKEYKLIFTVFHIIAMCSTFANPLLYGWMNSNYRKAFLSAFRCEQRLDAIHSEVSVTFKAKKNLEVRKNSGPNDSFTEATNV

[2] = biological target: T2, neuropeptide Y receptor Y5 (UniProt Q15761 1-445)
T2 sequence (looked up): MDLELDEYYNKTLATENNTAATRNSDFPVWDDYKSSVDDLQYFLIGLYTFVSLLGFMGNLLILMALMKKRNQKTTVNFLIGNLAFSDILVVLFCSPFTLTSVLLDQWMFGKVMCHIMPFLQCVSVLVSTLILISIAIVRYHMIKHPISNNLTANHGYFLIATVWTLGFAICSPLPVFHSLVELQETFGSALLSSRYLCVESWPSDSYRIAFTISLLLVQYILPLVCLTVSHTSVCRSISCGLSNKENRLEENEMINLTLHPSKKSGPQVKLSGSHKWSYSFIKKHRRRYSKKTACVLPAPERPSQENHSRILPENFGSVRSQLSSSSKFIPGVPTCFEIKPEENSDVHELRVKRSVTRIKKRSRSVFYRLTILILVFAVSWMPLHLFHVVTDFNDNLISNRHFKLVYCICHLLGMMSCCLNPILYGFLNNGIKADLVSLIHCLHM

ghrelin receptor [3] = biological target: T3, ghrelin receptor (UniProt Q92847 1-366)
GPR10 [4] = biological target: T4, GPR10 (human, UniProt P49683 1-370)
T4 sequence (looked up): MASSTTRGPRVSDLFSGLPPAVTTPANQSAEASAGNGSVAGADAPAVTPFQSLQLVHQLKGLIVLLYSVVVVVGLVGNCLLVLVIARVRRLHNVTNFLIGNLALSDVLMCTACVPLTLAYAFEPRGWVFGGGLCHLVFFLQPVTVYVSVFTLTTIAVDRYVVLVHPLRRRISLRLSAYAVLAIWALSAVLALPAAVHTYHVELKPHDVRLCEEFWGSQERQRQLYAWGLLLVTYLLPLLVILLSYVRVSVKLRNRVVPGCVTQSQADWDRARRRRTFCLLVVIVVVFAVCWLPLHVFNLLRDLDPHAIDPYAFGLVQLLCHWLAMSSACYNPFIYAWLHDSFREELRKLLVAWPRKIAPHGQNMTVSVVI

kappa-opioid receptor [5] = biological target: T5, kappa-opioid receptor (UniProt P41145 1-380)
kappa-opioid receptor [6] = biological target: T5, kappa-opioid receptor; experiment: radioligand binding; saturation with [^125I]-dynorphin on KOR
ghrelin receptor [7] = biological target: T3, ghrelin receptor; experiment: radioligand binding; saturation with [^125I]-ghrelin on GHSR
NPFF-R2 = biological target: T6, NPFF-R2 (UniProt Q9Y5X5 1-522); experiment: radioligand binding; competition with [^125I]-1DMe on plasma membranes of CHO-K1 cells with NPFF-R2 or NPFF-R1, 5 µg protein/tube; 50 mM Tris-HCl pH 7.4, 60 mM NaCl, 1 mM MgCl2, 0.5% BSA; 60 min at RT; filtration; Ki by the Cheng-Prusoff equation; details: one partner purified
T6 construct: also called NPFF-2R; source: CHO-K1 cell line (AequoScreen), bought: Perkin Elmer

NPFF-R1 [8] = biological target: T7, NPFF-R1 (UniProt Q9GZQ6 1-430); experiment: as above; details: one partner purified
T7 construct: also called NPFF-1R; source: CHO-K1 cell line, bought: Perkin Elmer

[9] = biological target: T2, neuropeptide Y receptor Y5; experiment: cell-based or functional assay
ghrelin receptor [10] = biological target: T3, ghrelin receptor; experiment: cell-based or functional assay
GPR10 [11] = biological target: T4, GPR10; experiment: cell-based or functional assay
kappa-opioid receptor [12] = biological target: T5, kappa-opioid receptor; experiment: cell-based or functional assay
ghrelin receptor [13] = biological target: T3, ghrelin receptor; experiment: radioligand binding; competition with 0.1 nM [^125I]-ghrelin on U2OS cells stably expressing GHSR; 50 mM Tris-Cl pH 7.4, 118 mM NaCl, 5 mM MgCl2, 4.7 mM KCl, 0.1% BSA; peptides 10^-12 to 10^-5 M; 60 min at RT; Ki by the Cheng-Prusoff equation; details: one partner purified
[14] = biological target: T2, neuropeptide Y receptor Y5; experiment: radioligand binding; competition with 0.1 nM [^125I]-PYY on U2OS cells with Y1, Y2 or Y5; 25 mM HEPES, 120 mM NaCl, 5 mM MgCl2, 4.7 mM KCl, 1 mM CaCl2, 0.5% BSA, 2 g/L glucose; peptides 10^-12 to 10^-5 M; 60 min at RT; Ki by the Cheng-Prusoff equation; details: one partner purified
[15] = biological target: T8, neuropeptide Y receptor Y1 (UniProt P25929 1-384); experiment: as above; details: one partner purified
T8 construct: receptor of NPY, Y1; source: U2OS cells stably expressing the receptor, bought: Thermo Fisher Scientific; on cells
T8 sequence (looked up): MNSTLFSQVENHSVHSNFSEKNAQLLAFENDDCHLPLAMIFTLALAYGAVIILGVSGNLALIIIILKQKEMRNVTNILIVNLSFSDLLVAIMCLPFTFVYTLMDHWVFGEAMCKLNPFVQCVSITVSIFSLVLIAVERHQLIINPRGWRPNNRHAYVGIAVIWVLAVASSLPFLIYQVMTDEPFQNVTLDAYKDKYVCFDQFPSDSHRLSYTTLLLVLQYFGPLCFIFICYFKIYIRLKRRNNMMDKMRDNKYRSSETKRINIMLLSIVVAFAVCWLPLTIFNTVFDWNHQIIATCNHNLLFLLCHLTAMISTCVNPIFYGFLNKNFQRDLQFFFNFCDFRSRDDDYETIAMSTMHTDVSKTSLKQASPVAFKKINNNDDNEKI

GPR10 [16] = biological target: T4, GPR10; experiment: radioligand binding; competition with [^125I]-PrRP31 on CHO-K1 cells expressing human GPR10; Ki by the Cheng-Prusoff equation; details: one partner purified
kappa-opioid receptor [17] = biological target: T5, kappa-opioid receptor; experiment: radioligand binding; competition with [^125I]-dynorphin A on plasma membranes of CHO-K1 cells with KOR, 5 µg protein/tube; 50 mM Tris-HCl pH 7.4, 60 mM NaCl, 1 mM MgCl2, 0.5% BSA; 60 min at RT; filtration; Ki by the Cheng-Prusoff equation; details: one partner purified
NPFF-R1 [18] = biological target: T7, NPFF-R1; experiment: radioligand binding; saturation with [^125I]-1DMe on membranes from CHO-K1 cells expressing NPFF-R1; details: one partner purified

Palm-PrRP31 (peptide)
Ki [1]: > 10000 nM | EC50, agonist mode, β-lactamase reporter assay [2]: 56.5 nM | EC50, agonist mode, β-lactamase reporter assay (ghrelin receptor [3]): 1270 nM | EC50, agonist mode, β-lactamase reporter assay (GPR10 [4]): 0.0718 nM | EC50, agonist mode, β-lactamase reporter assay (kappa-opioid receptor [5]): > 10000 nM

[^125I]-dynorphin A (peptide)
Kd (kappa-opioid receptor [6]): 2.38 nM

[^125I]-ghrelin (peptide)
Kd (ghrelin receptor [7]): 0.44 nM

B1: Palm^11-PrRP31 (peptide)
peptide: SRTHRHSMEIK([γGlu-Palmitoyl])TPDINPAWYASRGIRPVGRF-NH2
notes: analog of human PrRP31 with Arg11 replaced by Lys11 that carries palmitic acid through a gamma-Glu linker; numbers count on: the peptide PrRP31; source: synthetic peptide, palmitoylated on resin, purified (HPLC, purity greater than 95%)
Ki (NPFF-R2): 7.66 nM | Ki (NPFF-R1 [8]): 13.5 nM | EC50, agonist mode, β-lactamase reporter assay [9]: 583 nM | EC50, agonist mode, β-lactamase reporter assay (ghrelin receptor [10]): 1070 nM | EC50, agonist mode, β-lactamase reporter assay (GPR10 [11]): 0.0391 nM | EC50, agonist mode, β-lactamase reporter assay (kappa-opioid receptor [12]): > 10000 nM | Ki (ghrelin receptor [13]): 2800 nM | Ki [14]: 362 nM | Ki [15]: > 10000 nM | Ki ([1]; one partner purified): > 10000 nM | Ki (GPR10 [16]): 3.44 nM | Ki (kappa-opioid receptor [17]): 4280 nM

B2: [^125I]-1DMe (peptide)
peptide: [dY](125I)L[NMeF]QPQRF-NH2
notes: 1DMe iodinated at D-Tyr1; numbers count on: the peptide
Kd (NPFF-R1 [18]): 0.94 nM
